Measured values as given in patent US20110039770A1, “INHIBITORS OF PROTEIN KINASE C ISOFORMS AND USES THEREOF” (PHARMAGAP INC., priority 2005, published 2011).
Where a SMILES comes first, the peptide text is derived from it. Where no end group is shown, it is not given here. The star is where a group is joined. PNA(A) = NCCN(CC(=O)*)C(=O)Cn1cnc2c(N)ncnc21

Columns and labels:
[1] = system: PKC enzymes (cPKCs); test: Phosphorylation of MARCKS peptide by endogenous PKCs in IMR-32 cells; type: cell-based, human
[2] = target: PKC alpha (Homo sapiens, UniProt P17252); test: Kinase-Glo Luminescent Kinase Assay; type: biochemical; details: for inhibition of PKC alpha activity (in words): Kinase-Glo
Procedure: (§1) Compounds TIM 10, 11, 13, 14, 15, and 18-22 (see Table 28) were tested for their ability to inhibit the activity of PKC-alpha, beta 1, delta and epsilon isoforms the Kinase-Glo™ Luminescent Kinase Assay (Promega, Cat # V6712/3/4) following the manufacturer's instructions.

[3] = target: PKC delta (Homo sapiens, UniProt Q05655); test: Kinase-Glo Luminescent Kinase Assay; type: biochemical; details: for inhibition of PKC delta activity (in words): Kinase-Glo
PKC delta, sequence (Q05655 whole entry): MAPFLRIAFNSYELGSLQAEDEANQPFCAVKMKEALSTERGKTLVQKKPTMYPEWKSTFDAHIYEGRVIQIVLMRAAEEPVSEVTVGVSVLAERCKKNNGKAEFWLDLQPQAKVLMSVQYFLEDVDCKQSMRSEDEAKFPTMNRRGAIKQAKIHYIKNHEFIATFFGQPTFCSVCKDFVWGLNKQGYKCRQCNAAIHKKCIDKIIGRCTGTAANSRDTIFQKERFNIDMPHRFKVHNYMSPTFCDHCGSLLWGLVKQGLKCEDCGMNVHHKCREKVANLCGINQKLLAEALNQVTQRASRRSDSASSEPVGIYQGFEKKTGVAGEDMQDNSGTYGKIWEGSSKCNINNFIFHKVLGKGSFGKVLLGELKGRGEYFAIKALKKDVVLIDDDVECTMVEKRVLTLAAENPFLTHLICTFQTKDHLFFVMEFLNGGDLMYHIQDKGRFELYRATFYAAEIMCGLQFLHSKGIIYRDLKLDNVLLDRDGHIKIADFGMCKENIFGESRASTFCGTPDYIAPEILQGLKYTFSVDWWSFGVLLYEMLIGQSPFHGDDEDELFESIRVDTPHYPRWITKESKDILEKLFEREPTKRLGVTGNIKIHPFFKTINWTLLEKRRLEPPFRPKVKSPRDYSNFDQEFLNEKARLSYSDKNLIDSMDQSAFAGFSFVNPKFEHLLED
Procedure: as §1

[4] = system: peripheral blood lymphocytes; test: Peripheral blood lymphocyte survival and blastogenic response to mitogens; type: cell-based; details: primary lymphocytes of pigs, mice and human
[5] = target: PKC beta 1 (Homo sapiens, UniProt P05771); test: Kinase-Glo Luminescent Kinase Assay; type: biochemical; parameters: purchased; details: for inhibition of PKC beta 1 activity (in words): Kinase-Glo
PKC beta 1, sequence (P05771 whole entry): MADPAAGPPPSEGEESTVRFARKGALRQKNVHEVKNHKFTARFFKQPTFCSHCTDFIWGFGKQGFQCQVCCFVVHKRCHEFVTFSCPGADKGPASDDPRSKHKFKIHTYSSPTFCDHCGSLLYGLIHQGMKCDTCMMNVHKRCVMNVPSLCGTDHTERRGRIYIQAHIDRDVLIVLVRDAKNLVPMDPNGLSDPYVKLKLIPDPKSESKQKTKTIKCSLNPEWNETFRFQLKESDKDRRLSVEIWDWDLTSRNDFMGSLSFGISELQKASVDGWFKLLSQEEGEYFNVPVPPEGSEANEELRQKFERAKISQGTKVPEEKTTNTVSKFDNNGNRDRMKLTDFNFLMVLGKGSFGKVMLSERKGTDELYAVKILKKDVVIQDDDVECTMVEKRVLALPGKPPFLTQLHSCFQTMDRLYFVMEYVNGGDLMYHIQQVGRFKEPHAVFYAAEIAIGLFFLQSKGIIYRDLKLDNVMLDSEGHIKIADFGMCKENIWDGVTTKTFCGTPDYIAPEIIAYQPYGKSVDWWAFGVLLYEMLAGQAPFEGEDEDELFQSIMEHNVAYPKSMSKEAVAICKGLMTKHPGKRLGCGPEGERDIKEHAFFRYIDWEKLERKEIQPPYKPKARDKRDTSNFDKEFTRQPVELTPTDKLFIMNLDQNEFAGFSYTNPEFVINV
Procedure: as §1

[6] = target: T1, PKC epsilon (Homo sapiens, UniProt Q02156); test: Kinase-Glo Luminescent Kinase Assay; type: biochemical; parameters: purchased
T1 sequence (Q02156 1-737): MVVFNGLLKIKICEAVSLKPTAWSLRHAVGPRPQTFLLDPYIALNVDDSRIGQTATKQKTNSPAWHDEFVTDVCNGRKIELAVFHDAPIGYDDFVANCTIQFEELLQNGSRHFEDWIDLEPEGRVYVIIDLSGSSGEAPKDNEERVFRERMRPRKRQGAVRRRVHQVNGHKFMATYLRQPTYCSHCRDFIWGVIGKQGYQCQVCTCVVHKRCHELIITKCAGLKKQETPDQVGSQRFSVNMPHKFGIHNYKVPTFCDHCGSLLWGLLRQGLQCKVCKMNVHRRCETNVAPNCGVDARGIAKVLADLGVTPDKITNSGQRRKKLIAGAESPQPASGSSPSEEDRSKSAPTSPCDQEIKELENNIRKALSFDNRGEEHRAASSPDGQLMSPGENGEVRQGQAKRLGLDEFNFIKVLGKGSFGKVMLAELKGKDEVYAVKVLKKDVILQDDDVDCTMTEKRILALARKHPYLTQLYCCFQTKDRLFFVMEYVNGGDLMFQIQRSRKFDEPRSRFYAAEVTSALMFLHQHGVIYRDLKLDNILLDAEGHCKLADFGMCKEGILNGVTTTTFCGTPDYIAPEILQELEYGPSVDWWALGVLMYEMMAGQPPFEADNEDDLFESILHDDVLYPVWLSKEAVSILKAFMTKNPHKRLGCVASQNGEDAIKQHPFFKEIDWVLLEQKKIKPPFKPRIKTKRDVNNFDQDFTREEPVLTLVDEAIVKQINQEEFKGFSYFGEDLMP
Procedure: as §1

[7] = system: LS180 human colon cancer cells; test: Survival of doxorubicin-resistant colon cancer cells, trypan blue exclusion; type: cell-based; details: 50 ng/ml; 72 hrs
Procedure: Highly tumourigenic human colon cancer cells (LS180; ATCC # CL-187) which constitutively express multi-drug resistance (MDR) were used for this experiment. LS180 cells were seeded in 6 well plates at a density of 2×10^5. After a 24 hr recovery cells were treated with 50 ng/ml of doxorubicin, 2.5 μM compound TIM 10, or a combination of doxorubicin and compound TIM 10 (2.5 μM and 5 μM) for 72 hrs. Note that compound TIM 10 was added to the cell culture medium; no protocol was used to force the compound into the cell. The cells were then trypsinized and counted using the standard trypan blue dye exclusion assay.

[8] = target: T2, PKC-β (Homo sapiens, UniProt P05771); test: Competition of PRE with PKC-β antibody binding, Protocol A, IMR-32 lysate
T2 construct: PRE 2 and PRE 3 in IMR-32 Neuroblastoma Cells: Protocol A; endogenous in cells; host or cells: IMR-32 human neuroblastoma cells
T2 sequence (P05771 whole entry): as the sequence (P05771 whole entry) above
Procedure: (§2) Cell lysates from either IMR-32 (human neuroblastoma) cells or C6Cx43 cells (rat glioma transfected cells overexpressing connexin 43) were obtained using standard protocols and the proteins of the lysate were separated by SDS PAGE electrophoresis and electrotransferred onto a nitrocellulose membrane. The membrane was incubated for 30 minutes in blocking buffer (TBST) containing the test peptide at either 5× or 20× the concentrations of the primary antibody. A primary polyclonal antibody specific for PKC-α (Santa Cruz Biotechnology, Inc., CA) was then added (15 μg/ml) and the membrane incubated for a further 45 minutes. Finally, the primary antibody was detected with a secondary antibody conjugated to alkaline phosphatase using standard procedures. The intensity of the band corresponding to PKC-α was assessed by scanning and densitometry using the Gel-Pro software (Media Cybernetics) to obtain relative band intensities (average of 3 replicas). Control assays were conducted as described above except that blocking buffer without peptide was used.
Peptides PRE 1, PRE 2 and PRE 3 (see Table 4) were tested for their ability to interfere with the binding of a PKC-β-specific polyclonal antibody (Santa Cruz Biotechnology, Inc.) to PKC-β using the general protocol described in Example 1. […] It is worth noting in this regard that PKC-α and PKC-β belong to the same sub-group of PKCs (cPKCs).

[9] = target: T2, PKC-β; test: Competition of PRE with PKC-β antibody binding, Protocol B, IMR-32; details: 100 μg
Procedure: The ability of the peptides PRE 2 and PRE 3 (see Table 4) to interfere with the binding of a PKC-α-specific polyclonal antibody (Santa Cruz Biotechnology, Inc.) to PKC-α was determined using a modified version of the protocol outlined above in which the test peptide was added directly to the cell extract prior to electrophoresis at a concentration of either 5× or 15× the concentration of the protein applied to each well of the gel for the Western blots (20 μg).
Peptides PRE 2 and PRE 3 (see Table 4) were tested for their ability to interfere with the binding of a PKC-β-specific polyclonal antibody (Santa Cruz Biotechnology, Inc.) to PKC-β using the general protocol described in Example 3.

[10] = target: T3, PKC-α (Homo sapiens, UniProt P17252); test: Competition of PRE with PKC-α antibody binding on Western blot, Protocol A, IMR-32 lysate; parameters: endogenous PKC-α in (A) untreated human neuroblastoma (IMR-32) cells; endogenous in cells; host or cells: IMR-32 human neuroblastoma cells; details: IMR-32 cells
Procedure: The ability of the PRE 1, 2 and 3 (see Table 3 above) to interfere with the binding of a PKC-α-specific polyclonal antibody to PKC-α was determined using the following protocol.
as §2
The results are expressed as relative band intensity and as a percentage of the intensity of the corresponding band in the control assay (“Relative intensity (%)”). “% inhibition” relates to the percentage of the PKC-α band that is inaccessible to the antibody.

[11] = target: T3, PKC-α; test: Competition of PRE with PKC-α antibody binding, Protocol B (peptide added to cell extract before electrophoresis), IMR-32; parameters: endogenous PKC-α in (A) untreated human neuroblastoma (IMR-32) cells; endogenous in cells; host or cells: IMR-32 human neuroblastoma cells; details: 100 μg
Procedure: Peptides PRE 3 and PRE 4 (see Table 4) were tested for their ability to interfere with the binding of isoform-specific polyclonal antibodies (Santa Cruz Biotechnology, Inc.) to PKC-α, PKC-βI or PKC-βII using the general protocol described in Example 3.

## Cn1c2ccccc2c2c3c(c4c5ccccc5n(CCC#N)c4c21)CNC3=O [Go6976]
[1]; 30 min
  inactivation of cPKCs (MARCKS phosphorylation): still very low
[1]; 24 h
  inactivation of cPKCs (phospho-MARCKS levels): obvious

## CC[C@H](C)[C@H](NC(=O)[C@H](CO)NC(=O)[C@@H](NC(=O)CNC(=O)[C@@H](NC(=O)[C@H](CC(C)C)NC(=O)[C@H](CC(N)=O)NC(=O)[C@H](CCC(N)=O)NC(=O)[C@H](C)NC(=O)[C@H](CC(=O)OC)NC(=O)[C@H](CCCCN)NC(=O)CNC(=O)CNC(=O)CNC(=O)CNC(=O)CNC(=O)CNC(=O)CNC(=O)[C@H](CC(C)C)NC(=O)[C@H](CCCNC(=N)N)NC(=O)[C@H](Cc1ccccc1)NC(=O)[C@H](CCCCNC(=O)CN(CCN)C(=O)Cn1cnc2c(N)ncnc21)NC(=O)[C@H](CCCNC(=N)N)NC(=O)[C@H](CCCNC(=N)N)NC(=O)[C@H](Cc1ccccc1)NC(C)=O)[C@@H](C)CC)[C@@H](C)CC)C(N)=O [TIM 15] (Ac-FRRK(PNA(A))FRLGGGGGGGKD(OMe)AQNLIGISI-NH2)
[2]; 15.0 μM, read-out: % Inhibition PKC-α
  inhibition at 15 µM: 32.1%
[2]; 30.0 μM, read-out: % Inhibition PKC-α
  inhibition at 30 µM: 21.8%
[3]; 15.0 μM, read-out: % Inhibition PKC-δ
  inhibition at 15 µM: 18.6%
[3]; 30.0 μM, read-out: % Inhibition PKC-δ
  inhibition at 30 µM: 21.8%
[4]
  apoptosis of peripheral blood lymphocytes: do not induce apoptosis
  blastogenic response to mitogens: do not drastically limit the blastogenic response
[5]; 15.0 μM, read-out: % Inhibition PKC-βI
  inhibition at 15 µM: 18.8%
[5]; 30.0 μM, read-out: % Inhibition PKC-βI
  inhibition at 30 µM: -69%
[6]; 15.0 μM, read-out: % Inhibition PKC-ε
  inhibition at 15 µM: 9%
[6]; 30.0 μM, read-out: % Inhibition PKC-ε
  inhibition at 30 µM: 81%

## COc1cccc2c1C(=O)c1c(O)c3c(c(O)c1C2=O)C[C@@](O)(C(=O)CO)C[C@@H]3O[C@H]1C[C@H](N)[C@H](O)[C@H](C)O1 [doxorubicin]
[7]
  cell survival: a large proportion of the cells survived

## Ac—FRRCFRL—(G)7—AKGIQEVKGGDAQNLIGISI—NH2 (Ac-FRRCFRLGGGGGGGAKGIQEVKGGDAQNLIGISI-NH2) [TIM 18, PRE 3 and PKI 4]
[2]; 2.5 μM
  % Inhibition PKC-α: 16.4%
[2]
  inhibition of PKC alpha activity (in words): very potent inhibitor
[3]; 5.0 μM
  % Inhibition PKC-δ: 56.3%
[3]; 30.0 μM
  % Inhibition PKC-δ: 85.1%
[3]
  inhibition of PKC delta activity (in words): inhibits the activity
[5]
  inhibition of PKC beta 1 activity (in words): inhibits the activity
[6]; Kinase-Glo
  inhibition of PKC epsilon activity (in words): no effect

## Ac—FRRCFRL—(G)7—KDAQNLIGISI—NH2 (Ac-FRRCFRLGGGGGGGKDAQNLIGISI-NH2) [TIM 21, PRE 4 and PKI 4]
[2]; 15.0 μM
  % Inhibition PKC-α: 64.3%
[2]; 30.0 μM
  % Inhibition PKC-α: 95.2%
[2]
  inhibition of PKC alpha activity (in words): at a lesser extent
[3]; 2.5 μM
  % Inhibition PKC-δ: 26.2%
[3]
  inhibition of PKC delta activity (in words): exceptionally good inhibitor
[5]; 5.0 μM
  % Inhibition PKC-βI: 11%
[5]; 30.0 μM
  % Inhibition PKC-βI: 13.9%
[5]
  inhibition of PKC beta 1 activity (in words): not active
[6]; 5.0 μM
  % Inhibition PKC-ε: −5%
[6]; 30.0 μM
  % Inhibition PKC-ε: 52%

## KDAQNLIGISL-NH2 [PRE 2]
[8]; 75 μg
  Band Intensity: 0.800
  Inhibition (%): 31.0%
  Relative Intensity (%): 69.0%
[8]; 300 μg
  Band Intensity: 0.403
  Inhibition (%): 65.3%
  Relative Intensity (%): 34.7%
[9]
  Band Intensity: 0.0322
  Inhibition (%): 54.7%
  Relative Intensity (%): 45.3%
[10]; 75 μg
  Band Intensity: 0.917
  Inhibition (%): 56.1%
  Relative Intensity (%): 43.9%
[10]; 300 μg
  Band Intensity: 0.192
  Inhibition (%): 90.9%
  Relative Intensity (%): 9.1%
[11]; Example 3
  Inhibition (%): 99.9%
  Relative Intensity (%): 0.135%
[11]; Example 3 (control 0.759)
  Band Intensity: 0.0103
